According to the RNAGym collection of RNA variant scans (doi:10.1073/pnas.2313332121):
Fewer inactive variants are shown than the library holds.

B1: TPR 5TU (parent)
chain: GGAUCUUCUCGAUCUAACAAAAAAGACAAAUCUGCCACAAAGCUUGAGAGCAUCUUCGGAUGCAGAGGCGGCAGCCUUCGGUGGCGCGAUAGCGCCAACGUUCUCAACUAUGACACGCAAAACGCGUGCUCCGUUGAAUGGAGUUUAUCAUG

Variants of: B1
Test: polymerase ribozyme fitness, log enrichment relative to wild type (log ratio); higher = more active; in vitro selection for triplet polymerase activity
Outline: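 Mutant libraries for each subunit of a heterodimeric triplet polymerase ribozyme were made by PCR and then transcribed. Each library underwent one round of in vitro selection in triplicate: annealing with a biotinylated primer, the partner subunit and triplets, frozen incubation at −7 °C, gel excision of extended constructs, streptavidin-bead capture and RT-PCR. Input and output libraries were Illumina-sequenced, and only genotypes with ≥10 input reads and ≥1 read per output were kept. Fitness is the logarithm, base 2, of genotype enrichment over wild-type enrichment, computed from inverse-variance-weighted replicate averages.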

Variant | polymerase ribozyme fitness (log ratio)
U13C C14U C54A G92A | ≤ -4.2
A12G G59A G94C | -0.564
U13G A17G C96A G143C | -4.19
U13C C14G C43G A91G A106U U109G A138G | -4.06
A12U G59U C69A C96U | -2.45
A12U A24C C63G C85U C87A G94C A107G G126A A137G G141U | ≤ -4.2
A12U C87U A97U | -0.917
A12G C85A C118A G136U | -3.83
A12U A49C G100U U146G | ≤ -4.2
A12U C93A | -1.26
A12U C93U | -1.13
A12U U144G | 0.918
U13G A19G G25C C79A C131G U145G | ≤ -4.2
U13C C27U G50C G92C | -4.02
A12U C85U A97G C116U | -1.53
U13A U135A | -0.229
A12G C79U G86C A120G C125U | ≤ -4.2
A12U C76G C85U C103A G126C U145G | ≤ -4.2
U13C A91U A120U | -3.86
U13A C76A U148G | ≤ -4.2
U13C A16G C18A C35A C87U | ≤ -4.2

Variant | polymerase ribozyme fitness (log ratio)
A12U C87A | -4.15
A12U C87G | -4.2
U13C A17C G67C U77G A89C A120C | ≤ -4.2
U13C C18A A40C U53A G83A | -2.56
A12G G58A A91U U109G | -3.78
A12U U82G | -1.49
A12U U31C C32U A40U C57G A73G C75A G88A G152A | ≤ -4.2
A12G G48C U56A G70A G83U | ≤ -4.2
U13A A20G A28G G48A U146C | ≤ -4.2
A12U U55G A142C | -1.46
A12G C69G A89U C96G U104A | -2.98
A12G G58U C116U A150G | -1.58
U13C A24C U45G G84U U135C | ≤ -4.2
A12G C95U | 0.599
U13C U90G C116A | -4.13
A12U C54U G59C A60G U144G | -0.245
U13A G58A C87U C105A C108U G124A U145A | ≤ -4.2
A12G G83A G126U U134C U148G | ≤ -4.2
U13C C38G U53A U82G G92A C105G C114U G128C U151C | ≤ -4.2
A12U C18U A19G U56G A60U C76G C108U C114G | ≤ -4.2
A12U C38U G83U | -0.788

Variant | polymerase ribozyme fitness (log ratio)
A12G C57U C87U C103G | -2.19
A12U A17G C57A A98U | -0.729
A12G C87U | -0.54
A12G C87G | -3.83
U13C U56G A115G | -2.32
A12U A23G C87U | -3.67
A12U G42C U61A A106U C132U | ≤ -4.2
U13C A22U A24U U53A A98U | -1.6
A12U A40U C85U U145C | -1.21
A12G U55G | -2
A12G U55A | 0.668
A12U G46C C69U | -3.08
A12U A91U | ≤ -4.2
A12U A91G | -2.26
A12U G42C C51U C93U C123A G124U | ≤ -4.2
A12U G46A C75U C87A C99U G117A | ≤ -4.2
U13A G94C | -1.19
A12G G81A G92A C114A G152U | ≤ -4.2
A12U A16U C51A G94A U109C A113G C116A U144A | ≤ -4.2
U13A U55A A89C G128U | -3.92
U13A A26U C76U U146A | -3.35

Variant | polymerase ribozyme fitness (log ratio)
U13C C14G A66G A73G C95U A110G | ≤ -4.2
A12U G94A | -1.47
A12U C35A C79U C96A A110G C118U C125A | ≤ -4.2
A12U C14U A21U A49G C75G C116U A121C U146G U151G | ≤ -4.2
A12U U82C G86C | ≤ -4.2
A12U G50U C72U G126A | -1.33
U13C A40C G48C G50C G83U | ≤ -4.2
A12G U53G G59A C95G A98C U146A | -1.26
A12U C87A A113U A115C U148A | ≤ -4.2
A12U C14A A24U U56A C85U C99U G141A | ≤ -4.2
A12U U53A U56A A66C A113C | ≤ -4.2
A12G C116G | 0.204
A12U | -0.161
A12U A17U A22C G34C U55A U56A C57U A64C C95U | ≤ -4.2
A12U A28U A41U U53G U56G G84A A91G C93G G140U | ≤ -4.2
A12U A26C C35A U55C G59C C76A C93A U111C A138G U144A | ≤ -4.2
U13A C57U A73C C96G | ≤ -4.2
A12U A16C A28G C38U A41U G86A A150G | ≤ -4.2
U13A A40U U55A C129A | ≤ -4.2
U13A G62A A142G | -2.22
U13C C35G C36G U55G G86U | -4.16
